Assay results reported in patent US12116387B2, “Antimicrobial peptides” (priority 2021, dated 2024).
“Also recorded” adds a separate entry of the source. Read-outs that look alike come from different tables or passages of the source.

Legend:
[1] = test system: different human and murine cell lines; assay: Hemolysis and cytotoxicity, text summary over the cell lines of Table 2; type: cell-based; conditions: range over cell lines
Protocol: Once the mechanisms by which the peptide targeted bacterial cells was elucidawted, the effect of the pentapeptide motif insertion on cytotoxicity against mammalian cells was evaluated.

mice = test system: mice
Protocol: Therefore, the anti-infective activity of mast-MO was then tested in pre-clinical mouse models. First, the toxicity of a single dose of either mast-L or mast-MO administered peritoneally to mice was assessed in order to determine the range of concentrations to be used in subsequent animal experiments. The hemolytic activity of mast-MO (up to 200 μmoL^−1) against murine red blood cells (Table 6) was also tested prior to conducting animal experiments.
Systemic bacterial infection mouse model. Acute toxicity assay was performed based on the work of Navon-Venezia and co-workers (46). The experiment was performed by intraperitoneal (i.p.) injection of the tested peptides to groups of 10 C57BL/6 mice. Each mouse was injected with a 0.5 mL solution of freshly prepared of peptides in PBS. The doses of peptide administered per mouse were 0, 10, 30, 50, 70 and 90 mg Kg^−1 of body weight. Animals were directly inspected for adverse effects for 6 h, and mortality was monitored for 7 days thereafter. Differences between groups were analysed using the Fisher exact test (differences were considered to be statistically significant when the P value was <0.05). Briefly, E. coli ATCC8739 and E. coli 1812446 or S. aureus ATCC 29213 and S. aureus (MRSA) ATCC33591 were plated on tryptic soy agar plus 5% sheep blood (blood agar, Himedia, India) from a frozen stock. Following 24 h of incubation of the agar plate, three isolated colonies were transferred to 1 mL of BHI. The broth culture was incubated overnight (12-16 h) at 37° C. with shaking. […] Mice were challenged with either strain of E. coli ATCC8739 and E. coli 1812446 or S. aureus ATC29213 and S. aureus (MRSA) ATCC33591 in a final volume of 200 μL of PBS by intraperitoneal injection (i.p.). The day of challenge was designated as day 1 of the experiment. Three hours after bacterial injection, mice (n=5) were treated, intraperitoneally, with different concentrations of peptides (1, 5 or 10 mg Kg^−1), LL-37, gentamicin and 10 mg Kg^−1 of imipenem or PBS for 8 days. For bacterial load evaluation, 5 mice per group were used. Animals were humanely killed 24 h after bacterial administration. To detect bacterial colonization, the peritoneal lavage samples were collected under sterile conditions. The peritoneal lavage was obtained by washing the cavity with 5 mL of sterile PBS. Samples were diluted serially, and 100 μL of each dilution was spread in duplicate on appropriate agar plates for the count of developed colonies. Cytokine levels (i.e., IFN-γ, IL-6, IL−10, IL−12p70 and TNF-α) in the peritoneal lavage of the mice both in the absence and presence of peptide treatment were quantified by ELISA (Peprotech, USA) according to the manufacturer's instructions.

IL-12, TNFα, IL-6 = assay: Cytokines in peritoneal fluid of infected mice (ELISA); type: in vivo, C57BL/6 mice; conditions: tracked for 48 h; mast-MO 10 mg Kg^−1, mast-L 5 mg Kg^−1
Protocol: […] PBS and imipenem (10 mg Kg^−1) were used as negative and positive controls, respectively. Data were expressed as mean±standard deviation. Statistical analysis was performed using Bonferroni test. ***p<0.001 as significant compared to the control.
To test whether the FLPII motif within the mast-MO sequence led to increased immunomodulatory and chemotactic properties with respect to mast-L, ELISA experiments were performed using the peritoneal fluid collected from mice (FIG. 5a). C57BL/6 mice were infected with both Gram-negative and Gram-positive pathogens and administered either mast-L or mast-MO intraperitoneally. For mice infected with E. coli ATCC8739, we monitored the peritoneal cavity to detect and quantify the release and presence of several immune mediators (FIG. 4E). […] This effect was similar to the positive control group of mice treated with […] (TGA) (FIG. 4B). […] After 24 h, the leukocyte recruitment levels in mast-MO-treated mice dropped to ˜10^6, likely attributed to the resolution of the infection by the peptide (FIGS. 5B and 5C). […] We monitored, via ELISAs, the cytokine profiles present within the peritoneal cavity of mice infected with E. coli ATCC8739 and S. aureus ATCC29213 (FIGS. 4E and FIG. 4F, respectively) and treated with a single dose of peptide. […]

[2] = test system: E. coli ATCC8739 and clinical isolate E. coli 1812446 (KPC-positive); assay: Systemic sepsis infection mouse model, E. coli strains; type: in vivo; conditions: 5 mg Kg^−1 i.p., 3 h post-infection
Protocol: FIG. 5A-5I pertains to a study of the anti-infective activity of mast-MO against Gram-negative and Gram-positive pathogens in a lethal sepsis infection model. In FIG. 5A mice were infected with bacteria, treated with each peptide or antibiotic and monitored for 8 days. Survival and cell counts after 24 h, respectively, are shown for E. coli ATCC8739 (2×10^4 CFU/mL inoculum) FIG. 5B and FIG. 5C, S. aureus ATCC29213 (2×10^9 CFU/mL inoculum) FIG. 5D and FIG. 5E, E. coli 1812446 (KPC-positive) (2×10^4 CFU inoculum) FIG. 5F and FIG. 5G, and S. aureus (MRSA) ATCC33591 (2×10^9 CFU inoculum) FIG. 5H and FIG. 5I. Mice were treated intraperitoneally (i.p.) with 1, 5 and 10 mg Kg^−1 of mast-L, mast-MO or 10 mg Kg^−1 of the antibiotics gentamicin and imipenem. PBS was used as a control for the untreated group of mice. Treatments were administered 3 h post-infection. Data are expressed as the mean±standard deviation. Statistical analysis was performed using Bonferroni test. […], **p<0.01, ***p<0.001 compared to the untreated control.
Systemic bacterial infection mouse model. […] Animals were humanely killed 24 h after bacterial administration.

[3] = test system: E. coli and S. aureus strains; assay: Systemic infection experiments, summary over all strains; conditions: 10 mg Kg^−1
Protocol: To determine the anti-infective activity of mast-MO in a pre-clinical mouse model, the ability of the peptide to kill pathogenic and drug-resistant E. coli and S. aureus strains was tested in a systemic sepsis infection mouse model (FIG. 5). The minimal bacterial load resulting in a lethal dose (LD100) 24 h post-intraperitoneal injection was first determined. […] Mice were infected with the LD100 of bacteria and treated 3 h post-infection with either mast-L (1 and 5 mg Kg^−1) or mast-MO (1, 5 and 10 mg Kg^−1), which were also administered intraperitoneally.
Systemic bacterial infection mouse model. […] The experiment was performed by intraperitoneal (i.p.) injection of the tested peptides to groups of 10 C57BL/6 mice. Each mouse was injected with a 0.5 mL solution of freshly prepared of peptides in PBS. The doses of peptide administered per mouse were 0, 10, 30, 50, 70 and 90 mg Kg^−1 of body weight. Animals were directly inspected for adverse effects for 6 h, and mortality was monitored for 7 days thereafter. Differences between groups were analysed using the Fisher exact test (differences were considered to be statistically significant when the P value was <0.05). Briefly, E. coli ATCC8739 and E. coli 1812446 or S. aureus ATCC 29213 and S. aureus (MRSA) ATCC33591 were plated on tryptic soy agar plus 5% sheep blood (blood agar, Himedia, India) from a frozen stock. Following 24 h of incubation of the agar plate, three isolated colonies were transferred to 1 mL of BHI. The broth culture was incubated overnight (12-16 h) at 37° C. with shaking. […] Mice were challenged with either strain of E. coli ATCC8739 and E. coli 1812446 or S. aureus ATC29213 and S. aureus (MRSA) ATCC33591 in a final volume of 200 μL of PBS by intraperitoneal injection (i.p.). The day of challenge was designated as day 1 of the experiment. Three hours after bacterial injection, mice (n=5) were treated, intraperitoneally, with different concentrations of peptides (1, 5 or 10 mg Kg^−1), LL-37, gentamicin and 10 mg Kg^−1 of imipenem or PBS for 8 days. For bacterial load evaluation, 5 mice per group were used. […]

Sequence: NLKALAALAKKIL [Mast-L]
- Concentration hemolytic and toxic towards human and murine cell lines [1]: 7 to 50 µmol⁻¹
- Gross toxicity, number of mice (TL) (mice; Dose 5 mg Kg^−1, five mice per group): 2 (TL-1)
- Gross toxicity, number of mice (TL) (mice; Dose 10 mg Kg^−1, five mice per group): 5
- Dose above which highly toxic in preliminary mouse experiments (mice; single dose, peritoneally): higher than 10 mg Kg^−1
- Pro-inflammatory cytokines IL-12, TNFα and IL-6 in the peritoneal cavity (IL-12, TNFα, IL-6): repressed
- Survival [2]: 40 to 60%
- Toxicity when injected systemically in the infection model [3]: had to be euthanized; also recorded: led to toxicity
